This is an account of results in article PMC8721105.

In assay [1] the target is TbPEX19FL-His (T. brucei). Kind of assay: ELISA.
Assay [2] concerns the target TbPEX19FL-His (T. brucei). Kind of assay: AlphaScreen or HTRF.
For assay [3], the target named is GST-TbPEX3d44 (T. brucei). As to the kind of experiment: AlphaScreen or HTRF.

Consider GST-TbPEX3d44 (domain or fragment), for which the Kd amounted to 0.16 nM in assay [1] and 32.8 nM in assay [2].

With TbPEX19-Strep (natural protein), the Kd in assay [3] came to 3.7 nM. The same measure, in the same setting: for tag-free TbPEX19 (natural protein) the value was 9.7 nM.
